Earlier results as cited in paper PMC3157396, “Molecular Basis for the Recognition of Adenomatous Polyposis Coli by the Discs Large 1 Protein” (PLoS ONE, 2011).

System: PDZ1 and PDZ2 domains of PSD-95
Text: The 3D structures of the three PDZ domains of DLG1 have been determined in the free forms [13]–[15]. They share very similar structures, and the ligand binding pockets are also conserved. […] The residues in the β2/β3 loop ...

- change of binding affinity on deletion of six residues from the β2/β3 loops (in words): decreases the binding affinity
B1: Kv1.4 potassium channel: Kv1.4 potassium channel (protein, UniProt P22459 1-653, looked up)
Potassium voltage-gated …: MEVAMVSAESSGCNSHMPYGYAAQARARERERLAHSRAAAAAAVAAATAAVEGSGGSGGGSHHHHQSRGACTSHDPQSSRGSRRRRRQRSEKKKAHYRQSSFPHCSDLMPSGSEEKILRELSEEEEDEEEEEEEEEEGRFYYSEDDHGDECSYTDLLPQDEGGGGYSSVRYSDCCERVVINVSGLRFETQMKTLAQFPETLLGDPEKRTQYFDPLRNEYFFDRNRPSFDAILYYYQSGGRLKRPVNVPFDIFTEEVKFYQLGEEALLKFREDEGFVREEEDRALPENEFKKQIWLLFEYPESSSPARGIAIVSVLVILISIVIFCLETLPEFRDDRDLVMALSAGGHGGLLNDTSAPHLENSGHTIFNDPFFIVETVCIVWFSFEFVVRCFACPSQALFFKNIMNIIDIVSILPYFITLGTDLAQQQGGGNGQQQQAMSFAILRIIRLVRVFRIFKLSRHSKGLQILGHTLRASMRELGLLIFFLFIGVILFSSAVYFAEADEPTTHFQSIPDAFWWAVVTMTTVGYGDMKPITVGGKIVGSLCAIAGVLTIALPVPVIVSNFNYFYHRETENEEQTQLTQNAVSCPYLPSNLLKKFRSSTSSSLGDKSEYLEMEEGVKESLCAKEEKCQGKGDDSETDKNNCSNAKAVETDV
